Results taken from article PMC6860424, “Structural analysis of the manganese transport regulator MntR from Bacillus halodurans in apo and manganese bound forms” (PLoS ONE, 2019).

Target: the molecule itself
Assay: crystal structure; apo BhMntR; sitting-drop vapor diffusion at 296 K, 0.1 M sodium/potassium phosphate pH 6.2, 0.4 M magnesium formate; 2.3 Å; two subunits in the asymmetric unit

B1: manganese transport regulator MntR from Bacillus halodurans (natural protein, UniProt Q9K943 1-139, looked up)
chain: MPTPSMEDYLERIYLLIEEKGYARVSDIAEALEVHPSSVTKMVQKLDKSDYLVYERYRGLILTAKGKKIGKRLVYRHDLLEDFLKMIGVDSDHIYEDVEGIEHHLSWDAIDRIGDLVQYFQEDPSRLNDLREVQKKNEE
notes: MntR homologue BH2807 of Bacillus halodurans, a protein of 139 amino acids; gene amplified from genomic DNA into pET-28b(+) NdeI/XhoI; subunit described as residues 1-71 (domain 1) and 72-139 (domain 2); Homodimer in both crystal forms; also called BhMntR; BH2807; source: E. coli BL21(DE3) Star pLysS, purified (Ni IMAC, Superdex 200 gel filtration)
stoichiometry N: 2
